Data taken from paper PMC9814641, “Microbial rhodoquinone biosynthesis proceeds via an atypical RquA-catalyzed amino transfer from S-adenosyl-L-methionine to ubiquinone” (Communications Chemistry, 2022).
One block for each molecule: values may come before it.

How the values were obtained:
RquA = target: T1, RquA (Rhodospirillum rubrum, UniProt Q2RPC3); assay: intrinsic tryptophan fluorescence titration, one-site fit; also Michaelis-Menten kinetics (apparent Km […] with UQ3 and Mn2+); type: binding
T1 construct: gene Rru_A3227

[1] = target: RquA (TEV-cleaved from MBP-RquA) (R. rubrum); assay: SEC; calibrated HiLoad 16/60 Superdex 200; TRIS (20 mM), NaCl (200 mM), TCEP (1 mM), 0.1% Brij-35, pH 8.0; mass estimated from the elution volume
[2] = substrate: COC1=C(OC)C(=O)C(C/C=C(\C)CC/C=C(\C)CCC=C(C)C)=C(C)C1=O; assay: LC-MS enzyme assay of conversion to RQ3, Michaelis-Menten kinetics (apparent Km); type: biochemical, Rhodospirillum rubrum; details: Mn2+; SAM (co-substrate)

Kd (RquA): 2220 ± 1020 µM
Molecule: C[S+](CC[C@H](N)C(=O)[O-])C[C@H]1O[C@@H](n2cnc3c(N)ncnc32)[C@H](O)[C@@H]1O (stereo partly drawn) [compound 3, S-adenosyl-L-methionine]

stoichiometry N [1]: 2
Molecule: RquA (TEV-cleaved from MBP-RquA) (enzyme)

B1: RquA (Rhodospirillum rubrum ATCC 11170) (protein)
chain: MTKHQGAVRPVGPEESAFPASQSFSETGPVVADPIKPLPAYLQETYTWAYLDPRNVEWLDHEIVVNAILWGNMTRLMATAFKEFEPGQEVLQPACVYGPFSRHLAERLGPEGYLEVHDVAPVQIHHTRRKVEGLPQVTLRRADAADPLDRDFDGVCCFFLLHEVPDHVKSKIVDNMLSAVRPGGKVVFVDYHRYAALHPLRPIMAFVFRTLEPFAWGLCTREISDFASDAGSFTWRKETYFGGLYQKVVAERRA
notes: MBP-RquA
Km [2]: 0.155 ± 0.028 µM
